{"source": "IntAct's records for PubMed 22982544", "parents": {"B1": {"name": "Autophagy-related protein (Plasmodium falciparum (isolate 3D7)), Q8IJK2 (parent)", "chain": "MPSLKDEVSFENRVAETHKIRSKYPNRIPVVCERANRSNLPIIEKKKFLVPMNMLVGEFKFILHQHINQSAYGSNMKLFRERTIYLFVNNIVPKTGLLMQDLYEMYKDEDGYLYMEYSCESCLG"}, "B2": {"name": "- (Plasmodium falciparum (isolate 3D7)), C0H519 (parent)", "chain": "MSDQINVKHKIGDTCRKLYSYFKTVNNTSTFIQNGTLTPSEFVDSGDFLVYKFKTWEWQEADKDRVVPYLPENKQFLITKNVPCKQRIKDLNNIVHDLKIVDNDWLLPSYEEDNNPTDIYEYLPNSEYTINDKNIYNYEEEEEDDNCDEAIDINNFYMENNLIKEHDPASINSTSCYSKNMLHDNLMKIRTYDVSITYDKYYQTPRIWLFGYNENGDPLKSEEIFEDILSDYSYKTVTYDPHPCTGVMTASIHPCKHAEAILNVVNNWISEEKEPRHDLYLLFLLKFISGVIPTIEYDFTTDIEIPRDSNAGL"}}}
{"variants_of": "B1", "settings": "with c0h519, C0H519"}
{"variant": "MPSLKDEVSFENRVAETHKIRSKYPNEIPVVCERANRSNLPIIEKKKFLVPMNMLVGEFKFILHQHINQSAYGSNMKLFRERTIYLFVNNIVPKTGLLMQDLYEMYKDEDGYLYMEYSCESCLG", "effect of a mutation on the interaction": "disrupting interaction"}
{"variant": "MPSLKDEVSFENRVAETHKIRSKYPNRIPVVCERANRSNLPIIEKKEFLVPMNMLVGEFKFILHQHINQSAYGSNMKLFRERTIYLFVNNIVPKTGLLMQDLYEMYKDEDGYLYMEYSCESCLG", "effect of a mutation on the interaction": "disrupting interaction"}
{"variant": "MPSLKDEVSFENRVAETHKIRSKYPNRIPVVCERANRSNLPIIEKKKFAVPMNMLVGEFKFILHQHINQSAYGSNMKLFRERTIYLFVNNIVPKTGLLMQDLYEMYKDEDGYLYMEYSCESCLG", "effect of a mutation on the interaction": "decreasing interaction"}
{"variant": "MPSLKDEVSFENRVAETHEIRSKYPNRIPVVCERANRSNLPIIEKKEFLVPMNMLVGEFKFILHQHINQSAYGSNMKLFRERTIYLFVNNIVPKTGLLMQDLYEMYKDEDGYLYMEYSCESCLG", "effect of a mutation on the interaction": "disrupting interaction"}
{"variant": "MPSLKDEVSFENRVAETHKIRSKYPNRIPVVCERANRSNLPIIASAKFLVPMNMLVGEFKFILHQHINQSAYGSNMKLFRERTIYLFVNNIVPKTGLLMQDLYEMYKDEDGYLYMEYSCESCLG", "effect of a mutation on the interaction": "decreasing interaction"}
{"variants_of": "B2", "settings": "with q8ijk2, Q8IJK2"}
{"variant": "MSDQINVKHKIGDTCRKLYSYFKTVNNTSTFIQNGTLTPSEFVDSGDFLVYKFKTWEWQEADKDRVVPYLPENKQFLITKNVPCKQRIKDLNNIVHDLKIVDNDALLPSYEEDNNPTDIYEYLPNSEYTINDKNIYNYEEEEEDDNCDEAIDINNFYMENNLIKEHDPASINSTSCYSKNMLHDNLMKIRTYDVSITYDKYYQTPRIWLFGYNENGDPLKSEEIFEDILSDYSYKTVTYDPHPCTGVMTASIHPCKHAEAILNVVNNWISEEKEPRHDLYLLFLLKFISGVIPTIEYDFTTDIEIPRDSNAGL", "note": "[W105A]", "effect of a mutation on the interaction": "decreasing interaction"}
